# Assay results taken from the supplement of paper PMC10567573.
# B1: KLHL13 (parent)
# chain: GVSKVGLRKIIDFIYTAKLSLNMD
# Variants of: B1
# Test: protein stability index of a GFP-peptide fusion (GPS, HEK-293T) (PSI 1-6); higher = more stable
# Settings: c terminus: a fixed tail appended
# 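Note: lentivirally expressed fusions sorted by FACS into six bins by GFP to DsRed ratio, PSI derived from sequencing read proportions per bin multiplied by bin number.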
row,Variant,protein stability index
1,GVSKVGLRKWIDFIYTAKLSLNMD,4.2
2,GVSKVGLRKRIDFIYTAKLSLNMD,2.74
3,GVSKVGLRKPIDFIYTAKLSLNMD,1.81
4,GVSKVGLRKAIDFIYTAKLSLNMD,2.04
5,GVSKVGLRKGIDFIYTAKLSLNMD,2.31
6,GVSKVGLRKCIDFIYTAKLSLNMD,1.53
7,GVSKVGLRKSIDFIYTAKLSLNMD,4.37
8,GVSKVGLRKYIDFIYTAKLSLNMD,3.8
9,GVSKVGLRKDIDFIYTAKLSLNMD,1.55
10,GVSKVGLRKTIDFIYTAKLSLNMD,2.02
11,GVSKVGLRKNIDFIYTAKLSLNMD,1.63
12,GVSKVGLRKQIDFIYTAKLSLNMD,2.35
13,GVSKVGLRKKIDFIYTAKLSLNMD,2.98
14,GVSKVGLRKEIDFIYTAKLSLNMD,1.48
15,GVSKVGLRKHIDFIYTAKLSLNMD,1.14
16,GVSKVGCRKIIDFIYTAKLSLNMD,3.38
17,GVSKVGWRKIIDFIYTAKLSLNMD,2.05
18,GVSKVGARKIIDFIYTAKLSLNMD,2.27
19,GVSKVGGRKIIDFIYTAKLSLNMD,3.85
20,GVSKVGHRKIIDFIYTAKLSLNMD,3.17
21,GVSKVGRRKIIDFIYTAKLSLNMD,2.5
22,GVSKVGKRKIIDFIYTAKLSLNMD,1.86
23,GVSKVGQRKIIDFIYTAKLSLNMD,2.97
24,GVSKVGTRKIIDFIYTAKLSLNMD,2.6

row,Variant,protein stability index
1,GVSKVGIRKIIDFIYTAKLSLNMD,3.25
2,GVSKVGSRKIIDFIYTAKLSLNMD,2.94
3,GVSKVGFRKIIDFIYTAKLSLNMD,2.93
4,GVSKVGLRKIEDFIYTAKLSLNMD,2.1
5,GVSKVGLRKIQDFIYTAKLSLNMD,1.61
6,GVSKVGLRKIADFIYTAKLSLNMD,1.87
7,GVSKVGLRKINDFIYTAKLSLNMD,2.24
8,GVSKVGLRKIHDFIYTAKLSLNMD,4.7
9,GVSKVGLRKIYDFIYTAKLSLNMD,4.12
10,GVSKVGLRKIKDFIYTAKLSLNMD,4.1
11,GVSKVGLRKIGDFIYTAKLSLNMD,2.63
12,GVSKVGLRKIMDFIYTAKLSLNMD,3.33
13,GVSKVGLRKIPDFIYTAKLSLNMD,1.97
14,GVSKVGLRKILDFIYTAKLSLNMD,3.57
15,GVSKVGLRKIDDFIYTAKLSLNMD,2.14
16,GVSKVGLRKISDFIYTAKLSLNMD,1.89
17,GVSKVQLRKIIDFIYTAKLSLNMD,2.4
18,GVSKVHLRKIIDFIYTAKLSLNMD,3.04
19,GVSKVVLRKIIDFIYTAKLSLNMD,3.71
20,GVSKVCLRKIIDFIYTAKLSLNMD,1.49
21,GVSKVWLRKIIDFIYTAKLSLNMD,2.32
22,GVSKVELRKIIDFIYTAKLSLNMD,1.47
23,GVSKVKLRKIIDFIYTAKLSLNMD,2.84
24,GVSKVSLRKIIDFIYTAKLSLNMD,2.08

row,Variant,protein stability index
1,GVSKVYLRKIIDFIYTAKLSLNMD,3.06
2,GVSKVNLRKIIDFIYTAKLSLNMD,2.05
3,GVSKVRLRKIIDFIYTAKLSLNMD,2.15
4,GVSKVLLRKIIDFIYTAKLSLNMD,4.85
5,GVSKVPLRKIIDFIYTAKLSLNMD,2.12
6,GVSKRGLRKIIDFIYTAKLSLNMD,3.04
7,GVSKEGLRKIIDFIYTAKLSLNMD,1.83
8,GVSKSGLRKIIDFIYTAKLSLNMD,3.47
9,GVSKPGLRKIIDFIYTAKLSLNMD,2.58
10,GVSKLGLRKIIDFIYTAKLSLNMD,2.12
11,GVSKAGLRKIIDFIYTAKLSLNMD,2.64
12,GVSKWGLRKIIDFIYTAKLSLNMD,3.14
13,GVSKIGLRKIIDFIYTAKLSLNMD,1.5
14,GVSKTGLRKIIDFIYTAKLSLNMD,4.05
15,GVSKCGLRKIIDFIYTAKLSLNMD,2.67
16,GVSKMGLRKIIDFIYTAKLSLNMD,2.27
17,GVSKYGLRKIIDFIYTAKLSLNMD,2.06
18,GVSKFGLRKIIDFIYTAKLSLNMD,4.57
19,GVSKNGLRKIIDFIYTAKLSLNMD,3.8
20,GVSKGGLRKIIDFIYTAKLSLNMD,3.21
21,GVSKQGLRKIIDFIYTAKLSLNMD,3.5
22,GVSAVGLRKIIDFIYTAKLSLNMD,3.12
23,GVSIVGLRKIIDFIYTAKLSLNMD,1.94
24,GVSNVGLRKIIDFIYTAKLSLNMD,2.24

row,Variant,protein stability index
1,GVSEVGLRKIIDFIYTAKLSLNMD,2.77
2,GVSYVGLRKIIDFIYTAKLSLNMD,1.85
3,GVSTVGLRKIIDFIYTAKLSLNMD,4.12
4,GVSRVGLRKIIDFIYTAKLSLNMD,2.95
5,GVSDVGLRKIIDFIYTAKLSLNMD,4.34
6,GVSHVGLRKIIDFIYTAKLSLNMD,2.18
7,GVSMVGLRKIIDFIYTAKLSLNMD,2.42
8,GVSSVGLRKIIDFIYTAKLSLNMD,2.88
9,GVSWVGLRKIIDFIYTAKLSLNMD,2.34
10,GVSFVGLRKIIDFIYTAKLSLNMD,3.29
11,GVSLVGLRKIIDFIYTAKLSLNMD,1.93
12,GVSCVGLRKIIDFIYTAKLSLNMD,2.64
13,PVSKVGLRKIIDFIYTAKLSLNMD,1.75
14,AVSKVGLRKIIDFIYTAKLSLNMD,3.93
15,TVSKVGLRKIIDFIYTAKLSLNMD,3.89
16,KVSKVGLRKIIDFIYTAKLSLNMD,2.08
17,HVSKVGLRKIIDFIYTAKLSLNMD,2.49
18,QVSKVGLRKIIDFIYTAKLSLNMD,2.05
19,NVSKVGLRKIIDFIYTAKLSLNMD,2.53
20,LVSKVGLRKIIDFIYTAKLSLNMD,2.96
21,WVSKVGLRKIIDFIYTAKLSLNMD,3.32
22,SVSKVGLRKIIDFIYTAKLSLNMD,3.05
23,GVSKVGLRVIIDFIYTAKLSLNMD,4.21
24,GVSKVGLRGIIDFIYTAKLSLNMD,1.91

row,Variant,protein stability index
1,GVSKVGLRYIIDFIYTAKLSLNMD,2.81
2,GVSKVGLRQIIDFIYTAKLSLNMD,2.03
3,GVSKVGLRDIIDFIYTAKLSLNMD,3.8
4,GVSKVGLRSIIDFIYTAKLSLNMD,2.4
5,GVSKVGLRHIIDFIYTAKLSLNMD,2.64
6,GVSKVGLRIIIDFIYTAKLSLNMD,3.12
7,GVSKVGLRAIIDFIYTAKLSLNMD,4.24
8,GVSKVGLRNIIDFIYTAKLSLNMD,3.3
9,GVSKVGLREIIDFIYTAKLSLNMD,1.78
10,GVSKVGLRMIIDFIYTAKLSLNMD,2.42
11,GVSKVGLRCIIDFIYTAKLSLNMD,3.38
12,GVSKVGLRLIIDFIYTAKLSLNMD,2.37
13,GYSKVGLRKIIDFIYTAKLSLNMD,2.11
14,GPSKVGLRKIIDFIYTAKLSLNMD,1.83
15,GKSKVGLRKIIDFIYTAKLSLNMD,2.38
16,GHSKVGLRKIIDFIYTAKLSLNMD,1.7
17,GGSKVGLRKIIDFIYTAKLSLNMD,3.41
18,GFSKVGLRKIIDFIYTAKLSLNMD,1.65
19,GSSKVGLRKIIDFIYTAKLSLNMD,1.79
20,GNSKVGLRKIIDFIYTAKLSLNMD,2.03
21,GTSKVGLRKIIDFIYTAKLSLNMD,4.01
22,GCSKVGLRKIIDFIYTAKLSLNMD,1.52
23,GDSKVGLRKIIDFIYTAKLSLNMD,3.51
24,GVSKVGLRKIIDFILTAKLSLNMD,2.07

row,Variant,protein stability index
1,GVSKVGLRKIIDFIFTAKLSLNMD,3.84
2,GVSKVGLRKIIDFIDTAKLSLNMD,1.8
3,GVSKVGLRKIIDFIGTAKLSLNMD,2.51
4,GVSKVGLRKIIDFIATAKLSLNMD,3.72
5,GVSKVGLRKIINFIYTAKLSLNMD,1.55
6,GVSKVGLRKIIVFIYTAKLSLNMD,1.94
7,GVSKVGLRKIISFIYTAKLSLNMD,3.08
8,GVSKVGLRKIIHFIYTAKLSLNMD,1.92
9,GVSKVGLRKIIEFIYTAKLSLNMD,2.27
10,GVSKVGLRKIIMFIYTAKLSLNMD,1.62
11,GVSKVGLRKIIQFIYTAKLSLNMD,2.36
12,GVSKVGLRKIIGFIYTAKLSLNMD,3.19
13,GVSKVGLRKIIIFIYTAKLSLNMD,2.57
14,GVSKVGLRKIITFIYTAKLSLNMD,2.9
15,GVSKVGLRKIILFIYTAKLSLNMD,2.27
16,GVSKVGLRKIIDHIYTAKLSLNMD,2.62
17,GVSKVGLRKIIDCIYTAKLSLNMD,2.83
18,GVSKVGLRKIIDGIYTAKLSLNMD,2.41
19,GVSKVGLRKIIDSIYTAKLSLNMD,1.44
20,GVSKVGLRKIIDVIYTAKLSLNMD,3.34
21,GVSKVGLRKIIDPIYTAKLSLNMD,2.22
22,GVSKVGLRKIIDRIYTAKLSLNMD,1.54
23,GVSKVGLRKIIDMIYTAKLSLNMD,2.74
24,GVSKVGLRKIIDTIYTAKLSLNMD,1.93

row,Variant,protein stability index
1,GVSKVGLRKIIDQIYTAKLSLNMD,1.04
2,GVSKVGLRKIIDKIYTAKLSLNMD,1.66
3,GVSKVGLRKIIDEIYTAKLSLNMD,1.43
4,GVSKVGLRKIIDDIYTAKLSLNMD,1.7
5,GVSKVGLRKIIDNIYTAKLSLNMD,1.48
6,GVSKVGLPKIIDFIYTAKLSLNMD,1.92
7,GVSKVGLGKIIDFIYTAKLSLNMD,2.07
8,GVSKVGLDKIIDFIYTAKLSLNMD,3.02
9,GVSKVGLKKIIDFIYTAKLSLNMD,4.72
10,GVSKVGLHKIIDFIYTAKLSLNMD,2.07
11,GVSKVGLLKIIDFIYTAKLSLNMD,4.65
12,GVSKVGLAKIIDFIYTAKLSLNMD,5.37
13,GVSKVGLIKIIDFIYTAKLSLNMD,2.55
14,GVSKVGLEKIIDFIYTAKLSLNMD,1.49
15,GVSKVGLWKIIDFIYTAKLSLNMD,3.31
16,GVSKVGLMKIIDFIYTAKLSLNMD,1.69
17,GVSKVGLCKIIDFIYTAKLSLNMD,2.46
18,GVSKVGLRKIIDFYYTAKLSLNMD,2.27
19,GVSKVGLRKIIDFNYTAKLSLNMD,2.15
20,GVSKVGLRKIIDFHYTAKLSLNMD,1.34
21,GVSKVGLRKIIDFLYTAKLSLNMD,2.9
22,GVSKVGLRKIIDFCYTAKLSLNMD,2.44
23,GVSKVGLRKIIDFPYTAKLSLNMD,2.12
24,GVSKVGLRKIIDFQYTAKLSLNMD,2.24

row,Variant,protein stability index
1,GVSKVGLRKIIDFVYTAKLSLNMD,2.43
2,GVSKVGLRKIIDFGYTAKLSLNMD,3.7
3,GVSKVGLRKIIDFDYTAKLSLNMD,1.86
4,GVSKVGLRKIIDFEYTAKLSLNMD,2.31
5,GVSKVGLRKIIDFMYTAKLSLNMD,3.04
6,GVSKVGLRKIIDFSYTAKLSLNMD,2.02
7,GVSKVGLRKIIDFWYTAKLSLNMD,3.72
8,GVSKVGLRKIIDFAYTAKLSLNMD,2.38
9,GVSKVGLRKIIDFKYTAKLSLNMD,1.94
10,GVDKVGLRKIIDFIYTAKLSLNMD,2.68
11,GVTKVGLRKIIDFIYTAKLSLNMD,2.37
12,GVHKVGLRKIIDFIYTAKLSLNMD,3.22
13,GVKKVGLRKIIDFIYTAKLSLNMD,2.31
14,GVGKVGLRKIIDFIYTAKLSLNMD,1.62
15,GVRKVGLRKIIDFIYTAKLSLNMD,2.45
16,GVMKVGLRKIIDFIYTAKLSLNMD,2.17
17,GVWKVGLRKIIDFIYTAKLSLNMD,2.47
18,GVYKVGLRKIIDFIYTAKLSLNMD,3.66
19,GVQKVGLRKIIDFIYTAKLSLNMD,2.92
20,GVVKVGLRKIIDFIYTAKLSLNMD,4.55
